In patent US9504755B2, “Multi-arm polymeric alkanoate conjugates” (Nektar Therapeutics, priority 2008, dated 2016):
Several values for one entry are separate records, joined by “and”; a condition that tells them apart may be missing. Identical values can stand only once. Marks after values point to notes of the source that are not given here.

How the values were obtained:
[1] = Pharmacokinetics after IV infusion in Beagle dogs; format: in vivo, dog
Protocol: The objective of the study was to assess the pharmacokinetics and excretion of docetaxel and 4-ARM-PEG20K-BA-docetaxel after intravenous infusion to dogs.
Pharmacokinetics were evaluated in male dogs (4 dogs/dose level) dosed with 0, 0.75, 2, or 4 mg/kg (0, 15, 40, and 80 mg/m^2/dose) of 4-ARM-PEG20K-BA-docetaxel or 0.75 mg/kg (15 mg/m^2) docetaxel. 4-ARM-PEG20K-BA-docetaxel and docetaxel were administered via a cephalic or saphenous vein disposable catheter as 60-min intravenous infusions at 4 mL/kg/hr. Seventeen blood samples were obtained by jugular venipuncture or Abbacoth IV catheter between 0 and 168 hr post-dose. Plasma concentrations of 4-ARM-PEG20K-BA-docetaxel and docetaxel were determined.

[2] = Population pharmacokinetic modeling of terminal disposition rate constant, rats; format: in vivo; settings: rat
Description: To further evaluate the sustained plasma docetaxel terminal half-life, a population pharmacokinetic approach was employed.
While determining the pharmacokinetics of docetaxel after administration of docetaxel or 4-ARM-PEG20K-BA-docetaxel, it was observed that reliable values for the terminal disposition rate constant λz could not be obtained for the majority of animals secondary to fluctuation of plasma docetaxel concentrations between adjacent sampling times and/or the occurrence of incomplete concentration-time profiles due to concentrations being near or at the lower limit of quantification (1 ng/mL). In addition, in Example 14, rats were sampled in groups of 15 using alternating, overlapping sparse sampling schemes across groups to encompass the total duration of sampling. All of these factors contributed to the occurrence of sparse data within a given animal's terminal concentration-time profile.
To further investigate and compare docetaxel terminal disposition patterns between docetaxel and 4-ARM-PEG20K-BA-docetaxel, population pharmacokinetic methods were applied to data from rats (Example 14) and dogs (Example 15 and in one additional study). This allowed estimation of population λz values and corresponding half-life values for each treatment group in the presence of incomplete data within individual animals. Specifically, data from all animals within a treatment group and all treatment groups were fit with a nonlinear mixed effect pharmacokinetic model using the program Monolix. Plasma docetaxel concentrations following docetaxel or 4-ARM-PEG20K-BA-docetaxel administration, and plasma 4-ARM-PEG20K-BA-docetaxel concentrations following 4-ARM-PEG20K-BA-docetaxel administration were fit with a model specifying zero-order input of the dose over a defined infusion period and biexponential disposition (Monolix PK Model 26). Docetaxel concentration-time data after 4-ARM-PEG20K-BA-docetaxel were fit with a model having first order input, to reflect metabolism of 4-ARM-PEG20K-BA-docetaxel to the active docetaxel metabolite, and biexponential disposition (Monolix PK Model 31). The parameter of interest for this investigation was the population terminal disposition rate constant, λz to supplement the results described above.

[3] = system: LoVo tumors; experiment: Anti-tumor activity in LoVo colorectal mouse xenograft model; format: in vivo
Protocol: H460, LS174T and LoVo tumors were established in female athymic nude mice. Groups of 10 mice received a total of three single doses of 4-ARM-PEG20K-BA-DOC or docetaxel administered every 7 days (q7d×3) at several doses up to a maximum tolerated dose (MTD). Control groups received no treatment after tumor implant. Animals were weighed daily for the first five days and twice weekly thereafter. Tumor volumes were measured twice weekly after the first drug injection.
Anti-tumor activity was measured as changes in tumor volume, time to reach endpoint, and complete or partial tumor regression.
Treatment outcome was evaluated by Tumor Growth Delay (TGD), which is defined as the increase in median time to endpoint in a treatment group compared to the control group. Here it is expressed as % TGD, as a percentage to the median time to endpoint of the control group.
A tumor whose volume was reduced to 50% or less for three consecutive measurements compared to its volume on Day 1 was considered to be in partial regression. Complete regression was defined as volume […] 13.5 mm^3 for three consecutive measurements.
Acceptable toxicity was defined as a group mean body weight (BW) loss of less than 20% during the study and not more than one treatment-related death among ten treated animals.

[4] = Pharmacokinetics after IV infusion in Sprague-Dawley rats; format: in vivo, rat
Protocol: The objective of this study was to assess the pharmacokinetics and excretion of docetaxel and 4-ARM-PEG20K-BA-docetaxel after intravenous infusion to rats.
Pharmacokinetics of 4-ARM-PEG20K-BA-docetaxel and docetaxel were evaluated in male rats (15 rats/dose level) dosed with 5, 10, and 15 mg/kg (30, 60, 90 mg/m^2) 4-ARM-PEG20K-BA-docetaxel or 5 mg/kg (30 mg/m^2) docetaxel. 4-ARM-PEG20K-BA-docetaxel and docetaxel were administered via a femoral vein catheter as 30-min intravenous infusions at 4 mL/kg. Blood samples (n=15 timepoints with n=5 samples/dose level/timepoint) were obtained by jugular venipuncture between pre-dose and 144 hours post-dose.

[5] = male dogs, average over 0.75, 2, 4 mg/kg
[6] = male dogs, single IV dose 0.75 mg/kg
[7] = male dogs, single IV dose 2 mg/kg
[8] = male dogs, single IV dose 4 mg/kg
[9] = docetaxel 5 mg/kg or conjugate 5, 10, 15 mg/kg
[10] = 16.9 mg/kg (50.7 mg/m^2), q7d×3
[11] = 22.5 mg/kg (67.5 mg/m^2), q7d×3
[12] = 40 mg/kg (120 mg/m^2), q7d×3 (exceeded MTD)
[13] = male rats, average over 5, 10, 15 mg/kg
[14] = male rats, single IV dose 5 mg/kg
[15] = male rats, single IV dose 10 mg/kg
[16] = male rats, single IV dose 15 mg/kg

## 4-ARM-PEG20K-Butanoate-Linked Docetaxel Conjugate [4-ARM-PEG20K-BA-DOC]
[1]; dogs, equivalent dose levels of 0.75 mg/kg
  plasma docetaxel AUC, fold lower than after docetaxel: ~7 fold
[1]; [5]
  CL, analyte conjugate, average (±SD): 0.13 mL/min/kg
  T1/2, analyte conjugate, average (±SD): 32 ± 4 h
  Vss, analyte conjugate, average (±SD): 0.26 ± 0.04 L/kg
[1]; male dogs, average over 0.75, 2, 4 mg/kg, listed as 4-ARM-PEG20K-BA-docetaxel
  T1/2, analyte conjugate, average (±SD): 31 h
[1]; [6]
  AUCinf, analyte conjugate: 104.247 µg·h/mL
  AUClast, analyte conjugate: 93.084 µg·h/mL
  AUClast, analyte docetaxel: 0.064 µg·h/mL
  CL, analyte conjugate: 0.12 mL/min/kg
  Cmax, analyte conjugate: 7084 ng/mL
  Cmax, analyte docetaxel: 2.1 ng/mL
  T1/2, analyte conjugate: 28 h
  Tmax, analyte conjugate: 1.1 h
  Tmax, analyte docetaxel: 0.88 h
  Vss, analyte conjugate: 0.23 L/kg
[1]; [7]
  AUCinf, analyte conjugate: 245.446 µg·h/mL
  AUClast, analyte conjugate: 232.378 µg·h/mL
  AUClast, analyte docetaxel: 0.153 µg·h/mL
  CL, analyte conjugate: 0.14 mL/min/kg
  Cmax, analyte conjugate: 17731 ng/mL
  Cmax, analyte docetaxel: 6.3 ng/mL
  T1/2, analyte conjugate: 35 h
  Tmax, analyte conjugate: 1.4 h
  Tmax, analyte docetaxel: 1.1 h
  Vss, analyte conjugate: 0.26 L/kg
[1]; [8]
  AUCinf, analyte conjugate: 611.47 µg·h/mL
  AUClast, analyte conjugate: 597.336 µg·h/mL
  AUClast, analyte docetaxel: 0.326 µg·h/mL
  CL, analyte conjugate: 0.12 mL/min/kg
  Cmax, analyte conjugate: 33570 ng/mL
  Cmax, analyte docetaxel: 19 ng/mL
  T1/2, analyte conjugate: 32 h
  Tmax, analyte conjugate: 6.8 h
  Tmax, analyte docetaxel: 12 h
  Vss, analyte conjugate: 0.31 L/kg
[2]
  plasma docetaxel half-life, fold longer than after docetaxel: about 4 fold
[2]; [9]
  Mean (SE) λz, plasma docetaxel: 0.00412 (0.001) hr^−1
  t½λz, plasma docetaxel: 168 h
[3]; [10]
  BW Loss (%): 7.0%
  Day of BW Nadir: 21
  No. Surviving/No. Treated Mice: 10/10
  PR (partial regressions): 0
  TGD (%): 64** %
[3]; [11]
  BW Loss (%): 11.0%
  Day of BW Nadir: 24
  No. Surviving/No. Treated Mice: 10/10
  PR (partial regressions): 0
  TGD (%): 50* %
[3]; 30 mg/kg (90 mg/m^2), q7d×3
  BW Loss (%): 16.2%
  Day of BW Nadir: 24
  No. Surviving/No. Treated Mice: 10/10
  PR (partial regressions): 0
[3]; 30 mg/kg (90 mg/m^2), q7d×3 (MTD for both agents)
  TGD (%): 128%
[3]; 40 mg/kg (120 mg/m^2), q7d×3
  Day of BW Nadir: 24
  No. Surviving/No. Treated Mice: 10/10
[3]; [12]
  BW Loss (%): 22.6%
  TGD (%): 148% and 148 ^1%
[4]; [13]
  CL, analyte conjugate, average (±SD): 0.33 mL/min/kg
  Vss, analyte conjugate, average (±SD): 0.61 ± 0.17 L/kg
[4]; [14]
  AUCinf, analyte conjugate: 250.374 µg·h/mL
  AUClast, analyte conjugate: 226.203 µg·h/mL
  AUClast, analyte docetaxel: 1.711 µg·h/mL
  CL, analyte conjugate: 0.33 mL/min/kg
  Cmax, analyte conjugate: 40079 ng/mL
  Cmax, analyte docetaxel: 122 ng/mL
  T1/2, analyte conjugate: 73 h
  Tmax, analyte conjugate: 0.5 h
  Tmax, analyte docetaxel: 0.5 h
  Vss, analyte conjugate: 0.8 L/kg
[4]; [15]
  AUCinf, analyte conjugate: 437.912 µg·h/mL
  AUClast, analyte conjugate: 419.132 µg·h/mL
  AUClast, analyte docetaxel: 3.003 µg·h/mL
  CL, analyte conjugate: 0.38 mL/min/kg
  Cmax, analyte conjugate: 70795 ng/mL
  Cmax, analyte docetaxel: 176 ng/mL
  T1/2, analyte conjugate: 59 h
  Tmax, analyte conjugate: 0.5 h
  Tmax, analyte docetaxel: 2.0 h
  Vss, analyte conjugate: 0.55 L/kg
[4]; [16]
  AUCinf, analyte conjugate: 895.159 µg·h/mL
  AUClast, analyte conjugate: 847.993 µg·h/mL
  AUClast, analyte docetaxel: 3.743 µg·h/mL
  CL, analyte conjugate: 0.28 mL/min/kg
  Cmax, analyte conjugate: 138296 ng/mL
  Cmax, analyte docetaxel: 273 ng/mL
  T1/2, analyte conjugate: 63 h
  Tmax, analyte conjugate: 0.5 h
  Tmax, analyte docetaxel: 1.0 h
  Vss, analyte conjugate: 0.47 L/kg
[4]; rats, equivalent doses (5 mg/kg)
  plasma docetaxel AUC compared with docetaxel: similar
